The experiment deals with Circumsporozoite protein (CSP) (Plasmodium falciparum (isolate 3D7), UniProt Q7K740). The experiment is described as follows: AVEXIS screen signal:noise (double-corrected).
Chain of Circumsporozoite protein (CSP) (Q7K740 19-374): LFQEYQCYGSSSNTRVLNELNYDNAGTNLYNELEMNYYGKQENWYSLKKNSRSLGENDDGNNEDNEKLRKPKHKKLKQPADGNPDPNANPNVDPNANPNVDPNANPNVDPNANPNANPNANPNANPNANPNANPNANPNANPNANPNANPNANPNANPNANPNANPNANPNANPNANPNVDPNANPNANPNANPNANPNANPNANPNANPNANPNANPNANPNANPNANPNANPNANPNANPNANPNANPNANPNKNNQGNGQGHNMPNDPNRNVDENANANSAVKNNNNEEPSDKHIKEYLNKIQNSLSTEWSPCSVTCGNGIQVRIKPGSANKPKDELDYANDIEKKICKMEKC

B1: ADP357 (protein)
chain: MGPPSAPPCRLHVPWKEVLLTASLLTFWNPPTTAKLTIESTPFNVAEGKEVLLLAHNLPQNRIGYSWYKGERVDGNSLIVGYVIGTQQATPGPAYSGRETIYPNASLLIQNVTQNDTGFYTLQVIKSDLVNEEATGQFHVYPELPKPSISSNNSNPVEDKDAVAFTCEPEVQNTTYLWWVNGQSLPVSPRLQLSNGNMTLTLLSVKRNDAGSYECEIQNPASANRSDPVTLNVLYGPDGPTISPSKANYRPGENLNLSCHAASNPPAQYSWFINGTFQQSTQELFIPNITVNNSGSYMCQAHNSATGLNRTTVTMITVSGSAP
modifications: bait human Fc-tagged dimer
B1 registered a binding score of 0.755.

B2: ADP140 (protein)
chain: MELRVLLCWASLAAALEETLLNTKLETADLKWVTFPQVDGQWEELSGLDEEQHSVRTYEVCDVQRAPGQAHWLRTGWVPRRGAVHVYATLRFTMLECLSLPRAGRSCKETFTVFYYESDADTATALTPAWMENPYIKVDTVAAEHLTRKRPGAEATGKVNVKTLRLGPLSKAGFYLAFQDQGACMALLSLHLFYKKCAQLTVNLTRFPETVPRELVVPVAGSCVVDAVPAPGPSPSLYCREDGQWAEQPVTGCSCAPGFEAAEGNTKCRACAQGTFKPLSGEGSCQPCPANSHSNTIGSAVCQCRVGYFRARTDPRGAPCTTPPSAPRSVVSRLNGSSLHLEWSAPLESGGREDLTYALRCRECRPGGSCAPCGGDLTFDPGPRDLVEPWVVVRGLRPDFTYTFEVTALNGVSSLATGPVPFEPVNVTTDREVPPAVSDIRVTRSSPSSLSLAWAVPRAPSGAVLDYEVKYHEKGAEGPSSVRFLKTSENRAELRGLKRGASYLVQVRARSEAGYGPFGQEHHSQTQLDESEGWREQLAL
modifications: bait human Fc-tagged dimer
In turn, B2 had a binding score of 1.91.

B3: ADP266 (protein)
chain: EEFRPEMLQGKKVIVTGASKGIGREMAYHLAKMGAHVVVTARSKETLQKVVSHCLELGAASAHYIAGTMEDMTFAEQFVAQAGKLMGGLDMLILNHITNTSLNLFHDDIHHVRKSMEVNFLSYVVLTVAALPMLKQSNGSIVVVSSLAGKVAYPMVAAYSASKFALDGFFSSIRKEYSVSRVNVSITLCVLGLIDTETAMKAVSGIVHMQAAPKEECALEIIKGGALRQEEVYYDSSLWTTLLIRNPCRKILEFLYSTSYNMDRFINK
modifications: bait human Fc-tagged dimer
On to B3, for which the binding score came to 0.642.

B4: ADP129 (protein)
chain: MFPFYSCWRTGLLLLLLAVAVRESWQTEEKTCDLVGEKGKESEKELALVKRLKPLFNKSFESTVGQGSDTYIYIFRVCREAGNHTSGAGLVQINKSNGKETVVGRLNETHIFNGSNWIMLIYKGGDEYDNHCGKEQRRAVVMISCNRHTLADNFNPVSEERGKVQDCFYLFEMDSSLACSPEISHLS
modifications: bait human Fc-tagged dimer
In turn, B4 came in with a binding score of 1.25.

B5: ADP371 (protein)
chain: MRRAWILLTLGLVACVSAESRAELTSDKDMYLDNSSIEEASGVYPIDDDDYASASGSGADEDVESPELTTSRPLPKILLTSAAPKVETTTLNIQNKIPAQTKSPEETDKEKVHLSDSERKMDPAEEDTNVYTEKHSDSLFKRTE
modifications: bait human Fc-tagged dimer
As for B5, the binding score amounted to 1.57.

B6: ADP278 (protein)
chain: IQAKLIFLNFVRVPYFIDLKKPQDQGLNHTCNYYLQPEEDVTIGVWHTVPAVWWKNAQGKDQMWYEDALASSHPIILYLHGNAGTRGGDHRVELYKVLSSLGYHVVTFDYRGWGDSVGTPSERGMTYDALHVFDWIKARSGDNPVYIWGHSLGTGVATNLVRRLCERETPPDALILESPFTNIREEAKSHPFSVIYRYFPGFDWFFLDPITSSGIKFANDENVKHISCPLLILHAEDDPVVPFQLGRKLYSIAAPARSFRDFKVQFVPFHSDLGYRHKYIYKSPELPRILREFLGKSEPEHQH
modifications: bait human Fc-tagged dimer
With B6, the binding score was 0.76.

B7: ADP355 (protein)
chain: MALLLLHPAFQSCLLLTLLGLWRTTPEAHASSLGAPAISAASFLQDLIHRYGEGDSLTLQQLKALLNHLDVGVGRGNVTQHVQGHRNLSTCFSSGDLFTAHNFSEQSRIGSSELQEFCPTILQQLDSRACTSENQENEENEQTEEGRPSAVEVWGYG
modifications: bait human Fc-tagged dimer
B7 returned a binding score of 0.935.

B8: ADP349 (protein)
chain: MAAAGPRRSVRGAVCLHLLLTLVIFSRAGEACKKVILNVPSKLEADKIIGRVNLEECFRSADLIRSSDPDFRVLNDGSVYTARAVALSDKKRSFTIWLSDKRKQTQKEVTVLLEHQKKVSKTRHTRETVLRRAKRRWAPIPCSMQENSLGPFPLFLQQVESDAAQNYTVFYSISGRGVDKEPLNLFYIERDTGNLFCTRPVDREEYDVFDLIAYASTADGYSADLPLPLPIRVEDENDNHPVFTEAIYNFEVLESSRPGTTVGVVCATDRDEPDTMHTRLKYSILQQTPRSPGLFSVHPSTGVITTVSHYLDREVVDKYSLIMKVQDMDGQFFGLIGTSTCIITVTDSNDNAPTFRQNAYEAFVEENAFNVEILRIPIEDKDLINTANWRVNFTILKGNENGHFKISTDKETNEGVLSVVKPLNYEENRQVNLEIGVNNEAPFARDIPRVTALNRALVTVHVRDLDEGPECTPAAQYVRIKENLAVGSKINGYKAYDPENRNGNGLRYKKLHDPKGWITIDEISGSIITSKILDREVETPKNELYNITVLAIDKDDRSCTGTLAVNIEDVNDNPPEILQEYVVICKPKMGYTDILAVDPDEPVHGAPFYFSLPNTSPEISRLWSLTKVNDTAARLSYQKNAGFQEYTIPITVKDRAGQAATKLLRVNLCECTHPTQCRATSRSTGVILG
modifications: bait human Fc-tagged dimer
B8 came in with a binding score of 0.666.

B9: ADP381 (protein)
chain: SQEKNKNANSSPVASTTPSASATTNPASATTLDQSKAWNRYRLPNTLKPDSYRVTLRPYLTPNDRGLYVFKGSSTVRFTCKEATDVIIIHSKKLNYTLSQGHRVVLRGVGGSQPPDIDKTELVEPTEYLVVHLKGSLVKDSQYEMDSEFEGELADDLAGFYRSEYMEGNVRKVVATTQMQAADARKSFPCFDEPAMKAEFNITLIHPKDLTALSNMLPKGPSTPLPEDPNWNVTEFHTTPKMSTYLLAFIVSEFDYVEKQASNGVLIRIWARPSAIAAGHGDYALNVTGPILNFFAGHYDTPYPLPKSDQIGLPDFNAGAMENWGLVTYRENSLLFDPLSSSSSNKERVVTVIAHELAHQWFGNLVTIEWWNDLWLNEGFASYVEYLGADYAEPTWNLKDLMVLNDVYRVMAVDALASSHPLSTPASEINTPAQISELFDAISYSKGASVLRMLSSFLSEDVFKQGLASYLHTFAYQNTIYLNLWDHLQEAVNNRSIQLPTTVRDIMNRWTLQMGFPVITVDTSTGTLSQEHFLLDPDSNVTRPSEFNYVWIVPITSIRDGRQQQDYWLIDVRAQNDLFSTSGNEWVLLNLNVTGYYRVNYDEENWRKIQTQLQRDHSAIPVINRAQIINDAFNLASAHKVPVTLALNNTLFLIEERQYMPWEAALSSLSYFKLMFDRSEVYGPMKNYLKKQVTPLFIHFRNNTNNWREIPENLMDQYSEVNAISTACSNGVPECEEMVSGLFKQWMENPNNNPIHPNLRSTVYCNAIAQGGEEEWDFAWEQFRNATLVNEADKLRAALACSKELWILNRYLSYTLNPDLIRKQDATSTIISITNNVIGQGLVWDFVQSNWKKLFNDYGGGSFSFSNLIQAVTRRFSTEYELQQLEQFKKDNEETGFGSGTRALEQALEKTKANIKWVKENKEVVLQWFTENSK
modifications: bait human Fc-tagged dimer
For the molecule B9, the binding score came out at 0.803.

Values taken from PMC11098746 (2024).
